Test results taken from US8580269B2, “Survivin peptides for autoimmune therapies” (Health Research, Inc., priority 2007, dated 2013).

Legend:
HLA-A*0201 [1] = molecular target: T1, HLA-A*0201 (Homo sapiens, UniProt P04439, D140Y/D185E/D98H/E176V/E277Q/G131W/G231S/I119V/I121R/I166T/I218V/L300P/L318F/N151K/N90K/P208A/P217A/Q86G/Q94H/R138H/R169H/T345S); assay: MHC class I peptide competitive displacement assay; details: displacement of labeled HPV18-27, FIG. 4A-B
From the text: (§1) FIGS. 4A, 4B and 4C provide a graphical representations of data from an analysis of HLA-A*0201 binding properties of survivin peptides. To obtain the data summarized in FIGS. 4A and 4B, survivin peptide epitopes were used in MHC class I peptide competitive displacement assays. IC50 represents the 50% inhibition concentration of survivin peptide required to displace a fluorescently labeled-known human MHC Class I ligand (HPV18-27). Positive control peptides (Flu & gp100) represent known immunogenic MHC class I ligands. Data represent mean fluorescence±S.E.M. of triplicate samples. FIG. 4C provides a graphical representation of data for specific HLA-A*0201 pentamer binding of wild type and altered survivin peptide epitopes.
(§2) As such, both peptides will bind H-2 Kb (the murine MHC class I counterpart) to a similar extent in mice. […] However, it is in administration to humans that the peptides of the invention are expected to display their enhanced potential, since the alteration of 57C to M alters the wild type peptide so that it contains a sequence that facilitates improved interaction with human MHC I. This is supported by the disparate MHC class I binding characteristics of the wild type and M57 peptides (FIG. 4A-C). As determined by competitive peptide binding assays, SVN53-67/M57 binds HLA-A*0201 approximately 12 fold stronger than the wild type SVN53-67 (FIG. 4A-B). […]

HLA-A*0201 [2] = molecular target: T1, HLA-A*0201; assay: survivin/MHC Class I-specific pentamer binding
From the text: as §1, §2

GL261 cells = assay: intracranial survival study in GL261 murine glioma model; assay type: in vivo, C57BL/6 mice; details: peptide loaded DC vaccine, GL261-C57BL/6 glioma model, FIG. 6
Experimental: FIG. 6 provides a graphical representation of data obtained from intracranial survival studies in a GL261 murine model utilizing altered peptides based on survivin amino acids 53-67. The peptides were administered using peptide loaded dendritic cell (DC) vaccines or as Keyhole Limpet Hemocyanin (KLH) conjugates. To obtain the data presented in FIG. 6, mice were intracranially implanted with 1×10^5 GL261 cells and were treated with survivin peptide DC vaccines. C57BL/6 mice were immunized with SVN57-64 based altered peptides, or OVA258-265 peptide loaded DC2.4 cells as well as a direct subcutaneous injection of 100 ug SVN 53-67/M57-KLH peptide in Incomplete Freund's Adjuvant (IFA) plus 100 ug GM-CSF. Vaccinations began 4 days after tumor cell implantation and were repeated (boosted) every 7 days to simulate a therapeutic setting. Survival was plotted according to Kaplan-Meier methods. Long-term survivors were confirmed tumor-free by high field strength MRI.

H2-K^b = molecular target: T2, H2-K^b (Mus musculus, UniProt P01901); assay: MHC class I peptide binding assay, upregulation of H2-K^b on RMA-S cells; assay type: cell-based, murine; details: 100 μM peptide at 37° C., FIG. 3
T2 construct: Upregulation of H2-K^b molecules on the surface of murine RMA-S cells; endogenous in cells; host or cells: murine RMA-S cells
T2 sequence (P01901 22-369): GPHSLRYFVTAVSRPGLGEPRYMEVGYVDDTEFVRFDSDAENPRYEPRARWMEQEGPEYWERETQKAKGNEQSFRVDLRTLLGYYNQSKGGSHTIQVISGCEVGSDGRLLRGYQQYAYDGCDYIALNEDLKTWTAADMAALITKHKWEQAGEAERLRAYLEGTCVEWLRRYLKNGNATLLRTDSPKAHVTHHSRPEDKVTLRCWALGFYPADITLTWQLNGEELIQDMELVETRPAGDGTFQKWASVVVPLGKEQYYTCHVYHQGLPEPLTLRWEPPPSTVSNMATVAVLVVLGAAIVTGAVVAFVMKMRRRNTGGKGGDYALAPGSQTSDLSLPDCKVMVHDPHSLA
T2 sequence (P01887 21-119 partner): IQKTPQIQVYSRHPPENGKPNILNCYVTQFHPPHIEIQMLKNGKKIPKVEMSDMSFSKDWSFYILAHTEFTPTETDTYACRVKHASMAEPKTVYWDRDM
Experimental: To obtain the data presented in FIG. 3, survivin peptide epitopes were used in conventional MHC class I peptide binding assays. Mean fluorescence in FIG. 3 represents binding of SVN peptides to H2-K^b. Upregulation of H2-K^b molecules on the surface of murine RMA-S cells which are deficient in the expression of surface MHC class I molecules was used to determine actual survivin peptide binding in vitro. Data presented in FIG. 3 represent the binding of 100 μM peptide at 37° C.

DLAQMFFCFKELEGW (SVN53-67/M57 with C to M change)
HLA-A*0201 binding relative to wild type SVN53-67 (HLA-A*0201 [1]): approximately 12 fold | increase of MHC I binding relative to the wild type sequence (HLA-A*0201 [2]; in situ binding assays for HLA-A*0201, FIG. 2 and FIG. 4C): approximately 73 fold

M F F C F K E L (MFFCFKEL; SVN-57-64/M57 mutant peptide)
survival compared to wild type peptide (GL261 cells): enhances survival over the wild type peptide

SVN56-64/M57: core peptide, survivin 56-64 with the C>M alteration at position 57 (QMFFCFKEL)
HLA-A*0201 binding relative to wild type SVN56-64 (HLA-A*0201 [2]; pentamer, FIG. 4C): approximately 73 fold

T L G E F L K L [SVN-97]
binding of SVN peptides to H2-K^b (mean fluorescence) (H2-K^b): less than SVN 57-64 wt, and considerably less than SVN 57-64/M57
